The results in this text go back to publication PMC12838881, “Engineering Single-Chain Antibody Fragment (scFv) Variants Targeting A Disintegrin and Metalloproteinase-17 (ADAM-17)” (Biomolecules, 2025).

The target in the test is T1, a disintegrin and metalloproteinase-17 catalytic domain (6xHis-ADAM-17cd) (UniProt P78536).
T1 construct: ADAM-17 (TACE), catalytic domain; also called TACE; tumor necrosis factor-α-converting enzyme; source: bought: Enzo Life Sciences
Description: flow cytometry on cells; scFv variants or TIMP-3 displayed on yeast; soluble 6xHis-ADAM-17cd or MMP-9cd at 100 nM (legend and results; the methods say 150 nM); PBSA pH 7.4; binding read with anti-6xHis Alexa Fluor 647, expression with anti-c-Myc and Alexa Fluor 488; median binding normalised to expression. The conditions noted are these: one partner purified.

T1 sequence (P78536 215-474): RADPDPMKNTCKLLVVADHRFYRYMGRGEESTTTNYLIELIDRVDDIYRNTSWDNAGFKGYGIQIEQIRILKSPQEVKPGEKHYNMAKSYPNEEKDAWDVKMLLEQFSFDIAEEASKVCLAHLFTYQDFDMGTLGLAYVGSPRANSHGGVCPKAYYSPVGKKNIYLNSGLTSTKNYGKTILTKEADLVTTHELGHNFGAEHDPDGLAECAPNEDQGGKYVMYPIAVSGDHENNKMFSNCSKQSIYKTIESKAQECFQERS

B1: SynAb-A6 scFv displayed on yeast (scFv, V domains shown)
VH: EVQLVQSGAEVKKPGESLKISCKGSGYSFTSYWIGWVRQMPGKGLEWMGIIYPGDSDTRYSPSFQGQVTISADKSISTAYLQWSSLKASDTAVYYCARTDLHVHVYYFDYWGQGTLVTVSS
VL: not shown
notes: light chain variable domain as printed; glycine-rich peptide linker between VL and VH; heavy chain variable domain as printed; CDR-H3 TDLHVHVYY; VL-VH orientation; source: yeast surface display, S. cerevisiae RJY100, pCTCON2 vector; not shown: Aga2p, N-terminal, kept
As for B1, the binding result is recorded as “binds”.

B2: SynAb-A7 scFv displayed on yeast (scFv, V domains shown)
VH: EVQLVQSGAEVKKPGESLKISCKGSGYSFTSYWIGWVRQMPGKGLEWMGIIYPGDSDTRYSPSFQGQVTISADKSISTAYLQWSSLKASDTAVYYCARKKEYYSRFDYWGQGTLVTVSS
VL: not shown
notes: light chain variable domain as printed; glycine-rich peptide linker between VL and VH; heavy chain variable domain as printed; CDR-H3 KKEYYSR; VL-VH orientation; source: yeast surface display, S. cerevisiae RJY100, pCTCON2 vector; not shown: Aga2p, N-terminal, kept
In the case of B2, the “binding per expression signal, fold of TIMP-3” value was no more than 3 fold.

B3: SynAb-A9 scFv displayed on yeast (scFv, V domains shown)
VH: QLQLQESGPGLVKPSETLSLTCTVSGGSISSSSYYWGWIRQPPGKGLEWIGSIYYSGSTYYNPSLKSRVTISVDTSKNQFSLKLSSVTAADTAVYYCARPGGYYDMEYLYFDYWGQGTLVTVSS
VL: not shown
notes: light chain variable domain as printed; glycine-rich peptide linker between VL and VH; heavy chain variable domain as printed; CDR-H3 PGGYYDMEYLY; VL-VH orientation; source: yeast surface display, S. cerevisiae RJY100, pCTCON2 vector; not shown: Aga2p, N-terminal, kept
Consider B3, for which the binding result is “binds”.
